What all share (format): in vivo, BALB/c mice
Assay [1] relates to spleen. Put plainly: Immunity organ weight test, spleen index. Particulars: healthy mice, saline 0.53 ± 0.05. The protocol:
One day after the last test substance administration (day 16), the liver, spleen, and thymus gland were separated and blotted dry with filter paper and weighed. The phagocytosis index α was calculated as below: α=(^3√{square root over ( )}K)(W÷WLS)
Spleen index (%)=(spleen weight/body weight)×100%

For assay [2], the system named is S180 sarcoma. Description: Growth of transplanted S180 sarcoma. The note with it: controls: IL-2, IFN-γ 3 × 10^5 IU/kg, cyclophosphamide 20 mg/kg. The protocol: (§1) Intraperitoneal injection, once per day. […] Treatment of all groups with testing substance lasted for 30 days or until the animal died unless otherwise specified.
Stock S180 sarcoma cells were incubated in DMEM/F12 medium supplemented with 10% fetal bovine serum, 37° C., 5% CO2 for 72 hrs, then washed 3-4 times with Hank's solution at room temperature. Adjust the cell concentration to 1-2×10^9 per litre with Hank's solution. […] The mice were killed by cervical vertebra dislocation. Vigorously growing and non-disrupted tumor masses were harvested and washed clean with sterile saline. The tissue was dispersed in saline to a homogenous cell suspension, in a ratio of 1 g tissue to 4 ml saline. The sarcoma bearing mice model was prepared with an injection of 0.2 ml cell suspension through the armpit. Administration of test substance treatment started as described in section Method 1.
2.2 The Tumor Growth Inhibition Index was Calculated According to the Following Formula: Tumor growth inhibition index=(mean tumor weight of control group−mean tumor weight of treatment group)÷mean tumor weight of control group 3.

The subject of assay [3] is ascitic fluid type liver cancer H22. Put plainly: Survival of mice with transplanted ascitic fluid type liver cancer H22. The procedure:
as §1
Stock H22 cells were incubated in DMEM/F12 medium supplemented with 10% fetal bovine serum, 37° C./5% CO2 for 72 hrs, then washed 3-4 times with Hank's solution at room temperature. Adjust cell concentration to 1-2×10^9 per litre with Hank's solution. 0.2 ml of the cell suspension was implanted to the abdominal cavity of several BALB/c mice for 6-8 days. The mice were killed by cervical vertebra dislocation. Ascitic fluid of the mice was collected aseptically and the cell concentration adjusted to 1×10^6 per ml with Hank's solution. 0.2 ml of the cell suspension was implanted into the abdominal cavity of healthy mice to generate the H22 carrying mouse model for ascitic fluid type liver cancer. Administration of test substance started as described in section Method 1. Survival data of the mice was recorded. If the animal survived longer than the experiment, the survival days was recorded as the duration of the experiment. Mean survival day was obtained by the Kaplan-meier method in the Survival option of the SPSS software. The survival index was calculated according to the following formula: Survival index=(mean survival days in treatment group−mean survival days of control group)÷mean survival days of control group×100% 4. The Effect of Peptides on the Cellular Immunity of BALB/c Mice with Transplanted Ascitic Fluid Type Liver Cancer H22 4.1 Preparation of Spleen Cell Suspension^[1,4]

Assay [4] has as its system T lymphocyte. Put plainly: T lymphocyte transformation in mice with ascitic fluid type liver cancer H22. Particulars: controls: rhIL-2, rmIFN-γ 3 × 10^5 IU/kg, cyclophosphamide 20 mg/kg, saline 1.25 ± 0.07. The protocol:
(§2) Healthy BALB/c mice were randomised into peptide group, rmIFN-γ group, rhIL-2 group, and saline group, 15 mice per group, and prepared into H22 carrying mice model as described in section Method 3. After implantation of the cancer cells, the test substances were administered for 15 days, the mice were killed by cervical dislocation. The spleen was isolated aseptically and manually dispersed in cold D-Hank's solution using an injection needle. The dispersed cell suspension was further sieved through a 100-gauge 150 μm diameter stainless steel sieve. After centrifugation at 200 g for 10 minutes, the supernatant was discarded. The cell pellet was re-suspended in 10 volume of Tris-NH4Cl buffer and then kept standing still for 10 minutes at room temperature. The suspended cells were collected by centrifugation at 150 g for 10 minutes. The cells were washed 2-4 times with cold D-Hank's solution by re-suspending and collecting by centrifugation with condition as described above. The washed cells were then diluted to the desired cell densities by RPMI-1640 culture medium, containing 10% fetal bovine serum.
Spleen cells of density 1×10^6/ml were placed onto a 96 wells cell culture plate, 100 μl/well, three parallel wells each of the assay sample and control sample per mouse. To the assay wells, 100 μl/well ConA of 100 μg/ml in RPMI-1640 was added, and 100 μl/well plain RPMI-1640 was used for the controls. The cells were incubated for 66 hrs at 37° C., 5% CO2. The cells were then pelleted by centrifugation at 150 g for 10 minutes.
50 μl/well MTT of 1 mg/ml in RPMI-1640 was added to the cell pellet and the cells re-suspended by shaking for 2 minutes. The incubation was continued for 4 hours. The supernatant was discarded after centrifugation at 150 g for 10 minutes. 120 μl 40 mM HCl-2-propanol was added to the cell pellet and shaken for 3 minutes. Use an ELISA reader to obtain OD570 nm of each well referenced at 630 nm.
Each mouse formed three assay wells and three control wells. The Stimulation Index (SI) of each mouse was obtained by first deriving the average OD of the three parallel wells, then dividing the value of the assay wells by the control wells.

The subject of assay [5] is NK cell. Put plainly: NK cell activity in mice with ascitic fluid type liver cancer H22. Particulars: controls: IL-2, IFN-γ 3 × 10^5 IU/kg, cyclophosphamide 20 mg/kg, saline 24.0 ± 8.2. The protocol: as §2
Mice spleen cells were prepared to 4×10^6/ml as described in section 4.1 above. Target cells YAC-1 were brought to log phase and adjusted to 1×10^5/ml. Using a 96 wells cell culture plate, 100 μl mouse spleen cells and 100 μl culture medium were added to the control well containing only the spleen cells; 100 μl target cells and 100 μl culture medium were added to the control well containing only target cells; 100 μl mouse spleen cells and 100 μl target cells were added to the NK activity assay well. Three parallel sets of the above were prepared per mouse. After that, the 96 wells cell culture plates were incubated for 4 hrs at 37° C., 5% CO2.
Samples were centrifuged at 150 g for 10 minutes to collect the cells. The supernatant was discarded and 50 μl/well MTT of 1 mg/ml was added. The reaction-mixture was then shaken for 2 minutes, and incubated at 37° C., 5% CO2 for 4 hours. The supernatant was discarded after centrifugation at 150 g for 10 minutes. 120 μl 40 mM HCl-2-propanol was added and shaken for 3 minutes. An ELISA reader was used to obtain OD570 nm of each well referenced at 630 nm.
The NK cell activity index of each mouse was obtained by first deriving the average OD of the three parallel wells of each combination, then applying this average OD to the following formula: NK cell activity index=[1−(average OD of spleen and target cell well−average OD of spleen cell only well)÷(average OD of target cell only well)]×100% 5. The Effect of Peptides on the Survival of DBA/2 Mice with Transplanted L1210 Leukemia

B1: IFN-γ: recombinant mouse IFN-γ (rmIFN-γ), Beijing Biotech Inc.; positive control (protein, UniProt P01580 23-155, looked up)
Interferon gamma: HGTVIESLESLNNYFNSSGIDVEEKSLFLDIWRNWQKDGDMKILQSQIISFYLRLFEVLKDNQAISNNISVIESHLITTFFSNSKAKKDAFMSIAKFEVNNPQVQRQAFNELIRVVHQLLPESSLRKRKRSRC
As for B1, the “weight of spleen (spleen index), X ± SD (%)” value in assay [1] (Table 28, peptide 5 μg/kg/day (so in the source) i.p. 15 days (IFN-γ, IL-2 3×10^5 IU/kg/day)) is recorded as 0.50 ± 0.04%; in assay [1] (peptide 0.5 μg/kg/day i.p. 15 days (IFN-γ, IL-2 3×10^5 IU/kg/day)), 0.50 ± 0.04%. Further, the “Tumor inhibition index (%)” value in assay [2] is 25.3%. Moreover, the “Tumor weight” value in assay [2] (saline 1.29 ± 0.50) came out at 0.96 ± 0.45 g. For the same molecule, the “Survival index (%)” value in assay [3] (control rmIFN-γ 3 × 10^5 IU/kg) was 6.1%. In assay [3] (controls: rhIL-2, rmIFN-γ 3 × 10^5 IU/kg, cyclophosphamide 20 mg/kg, saline 26.2 ± 6.8), this molecule registered a Survival days of 27.8 ± 7.5 days. The molecule also displayed a Stimulation index in assay [4] of 1.27 ± 0.14. In addition, the “NK activity index (%)” value in assay [5] came to 20.9 ± 3.3%.

The record behind these values is patent US20060167229A1, “Biologically active peptide conjugates” (priority 2002, published 2006).
